The RNAGym collection of RNA variant scans (doi:10.1093/molbev/msab373)

B1: Azoarcus group I ribozyme (parent)
chain: GUGCCUUGCGCCGGGAAACCACGCAAGGGAUGGUGUCAAAUUCGGCGAAACCUAAGCGCCCGCCCGGGCGUAUGGCAACGCCGAGCCAAGCUUCGGCGCCUGCGCCGAUGAAGGUGUAGAGACUAGACGGCACCCACCUAAGGCAAACGCUAUGGUGAAGGCAUAGUCCAGGGAGUGGCGAAAGUCACACAAACCGG

Variants of: B1
Assay: reverse-splicing fitness (ratio to wild type); higher = more active; in vitro selection; Mg2+ level not given
Method in brief: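 An in vitro group I ribozyme library with randomized positions was T7-transcribed and gel-purified. In triplicate, 10 pmol RNA in EPPS pH 7.5 was reacted with 50 pmoles of a 30-nt RNA substrate for 1 h at 37 °C across several added MgCl2 levels (1–48 mM), then stopped with EDTA. Products were reverse transcribed from a substrate-complementary primer, PCR-amplified and sequenced (HiSeq 4000). Fitness is a variant's read proportion after selection over that before, normalised to wild type.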

Question: For C82G A111G A120U A145G C150U C169U, which reverse-splicing fitness is on record?
Answer: 0.00611

Question: Which reverse-splicing fitness does the source give for C82G A111G A145C C150G C169A here?
Answer: 0.00828

Question: Which reverse-splicing fitness does the source give for C82G A111G A145C C150G C169G here?
Answer: 0.00758

Question: Which reverse-splicing fitness does the source give for C82G A111G A145C C150G C169U here?
Answer: 0.00923

Question: Which reverse-splicing fitness does the source give for C82G A111G A145G C150A U176G here?
Answer: 0.0208

Question: With C82G A111G A145G C150A U176A as the variant, how does the reverse-splicing fitness read?
Answer: 0.0383

Question: For C82G A111G A145G C150A U176C, which reverse-splicing fitness is on record?
Answer: 0.051

Question: Which reverse-splicing fitness does the source give for C82G A111G A145G C150G C169G U176G here?
Answer: 0.0064

Question: With C82G A111G A145G C150G C169G U176A as the variant, how does the reverse-splicing fitness read?
Answer: 0.011

Question: For C82G A111G A145G C150G C169G U176C, which reverse-splicing fitness is on record?
Answer: 0.0126

Question: Which reverse-splicing fitness does the source give for C82G A111G A145U C150G C169G here?
Answer: 0.00774

Question: For C82G A111G A145U C150G C169A, which reverse-splicing fitness is on record?
Answer: 0.0092

Question: With C82G A111G A145U C150G C169U as the variant, how does the reverse-splicing fitness read?
Answer: 0.00934

Question: With C82G A111G A145C C150U C169A U176C as the variant, how does the reverse-splicing fitness read?
Answer: 0.00686

Question: For C82G A111G A145C C150U C169A U176A, which reverse-splicing fitness is on record?
Answer: 0.0123

Question: Which reverse-splicing fitness does the source give for C82G A111G A145C C150U C169A U176G here?
Answer: 0.00694

Question: With C82G A111G A120U C150U C169U U176G as the variant, how does the reverse-splicing fitness read?
Answer: 0.00214

Question: Which reverse-splicing fitness does the source give for C82G A111G A120U C150U C169U U176C here?
Answer: 0.0051

Question: For C82G A111G A120U C150U C169U U176A, which reverse-splicing fitness is on record?
Answer: 0.00523

Question: With C82G A111G A120U A145G C150U C169A U176G as the variant, how does the reverse-splicing fitness read?
Answer: 0.00254

Question: For C82G A111G A120U A145G C150U C169A U176C, which reverse-splicing fitness is on record?
Answer: 0.00519

Question: Which reverse-splicing fitness does the source give for C82G A111G A120U A145G C150U C169A U176A here?
Answer: 0.00839

Question: For C82G A111G A145G C169G, which reverse-splicing fitness is on record?
Answer: 0.0101

Question: With C82G A111G A145G C169A as the variant, how does the reverse-splicing fitness read?
Answer: 0.00875

Question: For C82G A111G A145G C169U, which reverse-splicing fitness is on record?
Answer: 0.0129

Question: Which reverse-splicing fitness does the source give for C82G A111G A145G C150A C169A here?
Answer: 0.011

Question: With C82G A111G A145G C150A C169U as the variant, how does the reverse-splicing fitness read?
Answer: 0.0105

Question: Which reverse-splicing fitness does the source give for C82G A111G A145G C150A C169G here?
Answer: 0.00938

Question: Which reverse-splicing fitness does the source give for C82G A111G A145C C150A C169G U176C here?
Answer: 0.0122

Question: For C82G A111G A145C C150A C169G U176A, which reverse-splicing fitness is on record?
Answer: 0.0228

Question: With C82G A111G A145C C150A C169G U176G as the variant, how does the reverse-splicing fitness read?
Answer: 0.00577

Question: Which reverse-splicing fitness does the source give for C82G A111G A145G C169U U176A here?
Answer: 0.0132

Question: With C82G A111G A145G C169U U176G as the variant, how does the reverse-splicing fitness read?
Answer: 0.0049

Question: For C82G A111G A145G C169U U176C, which reverse-splicing fitness is on record?
Answer: 0.0155

Question: For C82G A111G A120U C150G C169G U176C, which reverse-splicing fitness is on record?
Answer: 0.00486

Question: For C82G A111G A120U C150G C169G U176G, which reverse-splicing fitness is on record?
Answer: 0.00263

Question: With C82G A111G A120U C150G C169G U176A as the variant, how does the reverse-splicing fitness read?
Answer: 0.00638

Question: Which reverse-splicing fitness does the source give for C82G A111G A120U C150A C169A U176C here?
Answer: 0.00424

Question: With C82G A111G A120U C150A C169A U176G as the variant, how does the reverse-splicing fitness read?
Answer: 0.00223

Question: For C82G A111G A120U C150A C169A U176A, which reverse-splicing fitness is on record?
Answer: 0.00549

Question: For C82G A111G A145G C150U C169G U176A, which reverse-splicing fitness is on record?
Answer: 0.017

Question: Which reverse-splicing fitness does the source give for C82G A111G A145G C150U C169G U176C here?
Answer: 0.0216

Question: With C82G A111G A145G C150U C169G U176G as the variant, how does the reverse-splicing fitness read?
Answer: 0.00635

Question: Which reverse-splicing fitness does the source give for C82G A111G A120U A145G C150U C169G U176C here?
Answer: 0.00595

Question: For C82G A111G A120U A145G C150U C169G U176A, which reverse-splicing fitness is on record?
Answer: 0.0105

Question: With C82G A111G A120U A145G C150U C169G U176G as the variant, how does the reverse-splicing fitness read?
Answer: 0.00241

Question: For C82G A111G A145C C169G, which reverse-splicing fitness is on record?
Answer: 0.00994

Question: With C82G A111G A145C C169U as the variant, how does the reverse-splicing fitness read?
Answer: 0.0132

Question: With C82G A111G A145C C169A as the variant, how does the reverse-splicing fitness read?
Answer: 0.00733

Question: With C82G A111G A145U C150G C169A U176A as the variant, how does the reverse-splicing fitness read?
Answer: 0.0126

Question: For C82G A111G A145U C150G C169A U176G, which reverse-splicing fitness is on record?
Answer: 0.00637

Question: With C82G A111G A145U C150G C169A U176C as the variant, how does the reverse-splicing fitness read?
Answer: 0.0155

Question: For C82G A111G A145U C150G C169G U176C, which reverse-splicing fitness is on record?
Answer: 0.00969

Question: For C82G A111G A145U C150G C169G U176G, which reverse-splicing fitness is on record?
Answer: 0.00579

Question: For C82G A111G A145U C150G C169G U176A, which reverse-splicing fitness is on record?
Answer: 0.00911

Question: With C82G A111G A120U C169U as the variant, how does the reverse-splicing fitness read?
Answer: 0.00572

Question: For C82G A111G A120U C169G, which reverse-splicing fitness is on record?
Answer: 0.00481

Question: For C82G A111G A120U C169A, which reverse-splicing fitness is on record?
Answer: 0.00418

Question: For C82G A111G A145G U176C, which reverse-splicing fitness is on record?
Answer: 0.27

Question: Which reverse-splicing fitness does the source give for C82G A111G A145G U176G here?
Answer: 0.0821

Question: For C82G A111G A145G U176A, which reverse-splicing fitness is on record?
Answer: 0.25

Question: For C82G A111G A145C C169A U176G, which reverse-splicing fitness is on record?
Answer: 0.00537

Question: Which reverse-splicing fitness does the source give for C82G A111G A145C C169A U176C here?
Answer: 0.00787

Question: With C82G A111G A145C C169A U176A as the variant, how does the reverse-splicing fitness read?
Answer: 0.0111

Question: For C82G A111G A145C C150G C169U U176C, which reverse-splicing fitness is on record?
Answer: 0.013

Question: Which reverse-splicing fitness does the source give for C82G A111G A145C C150G C169U U176G here?
Answer: 0.00582

Question: With C82G A111G A145C C150G C169U U176A as the variant, how does the reverse-splicing fitness read?
Answer: 0.00922

Question: Which reverse-splicing fitness does the source give for C82G A111G A145G C150G C169U U176G here?
Answer: 0.00803

Question: Which reverse-splicing fitness does the source give for C82G A111G A145G C150G C169U U176A here?
Answer: 0.012

Question: With C82G A111G A145G C150G C169U U176C as the variant, how does the reverse-splicing fitness read?
Answer: 0.0131

Question: For C82G A111G A145C C150U U176C, which reverse-splicing fitness is on record?
Answer: 0.0592

Question: Which reverse-splicing fitness does the source give for C82G A111G A145C C150U U176A here?
Answer: 0.0557

Question: For C82G A111G A145C C150U U176G, which reverse-splicing fitness is on record?
Answer: 0.0267

Question: For C82G A111G A120U A145G C169G U176C, which reverse-splicing fitness is on record?
Answer: 0.00531

Question: Which reverse-splicing fitness does the source give for C82G A111G A120U A145G C169G U176G here?
Answer: 0.00184

Question: For C82G A111G A120U A145G C169G U176A, which reverse-splicing fitness is on record?
Answer: 0.00491

Question: With C82G A111G A145G C169A U176C as the variant, how does the reverse-splicing fitness read?
Answer: 0.0235

Question: Which reverse-splicing fitness does the source give for C82G A111G A145G C169A U176A here?
Answer: 0.0158

Question: With C82G A111G A145G C169A U176G as the variant, how does the reverse-splicing fitness read?
Answer: 0.0057

Question: Which reverse-splicing fitness does the source give for C82G A111G A120U A145G C169U U176C here?
Answer: 0.00485

Question: For C82G A111G A120U A145G C169U U176A, which reverse-splicing fitness is on record?
Answer: 0.00415

Question: With C82G A111G A120U A145G C169U U176G as the variant, how does the reverse-splicing fitness read?
Answer: 0.00164

Question: With C82G A111G A145C U176C as the variant, how does the reverse-splicing fitness read?
Answer: 0.258
